Target: T1, SARS-CoV-2 WT RBD (SARS-CoV-2, WT (ancestral) strain, UniProt P0DTC2)
T1 construct: also called wild-type L452 RBD
Assay: BLI; antibody (IgG1, 11 μg/mL) loaded on AHC2 biosensor to about 1.5 nm; RBD in solution, association 300 s, dissociation 600 s; PBS-TB (PBS, 0.02% v/v Tween-20, 0.1% w/v BSA); 25°C; 1,000 rpm; binding response less than 0.1 considered non-binding
Settings: both partners purified

Row | Binder | binding result
1 | LY-CoV1404 (antibody, V domains shown, heavy chain of LY-CoV1404 (IGHV2-5*02, D56), not modified; variable region in PDB 7MMO; light chain of LY-CoV1404; IgG1; source: Expi 293, transfected, purified (protein A)) VH: QITLKESGPTLVKPTQTLTLTCTFSGFSLSISGVGVGWLRQPPGKALEWLALIYWDDDKRYSPSLKSRLTISKDTSKNQVVLKMTNIDPVDTATYYCAHHSISTIFDHWGQGTLVTVSS VL: QSALTQPASVSGSPGQSITISCTATSSDVGDYNYVSWYQQHPGKAPKLMIFEVSDRPSGISNRFSGSKSGNTASLTISGLQAEDEADYYCSSYTTSSAVFGGGTKLTVL | binds
2 | BD56-1290 (antibody, V domains shown, heavy chain of BD56-1290 (IGHV2-5*02, D56), not modified; light chain of BD56-1290; IgG1; source: Expi 293, transfected, purified (protein A)) VH: QITLKESGPTLVKPTQTLTLTCTFSGFSLSTSGVGVGWIRQPPGKALEWLALIYWDDDSRYSPSLKTRLTITKDTSKNQVVLTLTNMDPVDTATYYCGHFTIDMIVGYWGQGTLVTVSS VL: QSALTQPASVSGSPGQSITISCTATSIDVGAFHYVSWYQHHPGKAPKLIIFDVTNRPSGVSNRFSGSKSGNTASLTISGLQAEDEADYYCSSYTDSTVVFGGGTKLTVL | binds
3 | BD57-028 (antibody, V domains shown, heavy chain of BD57-028 (IGHV2-5*02, D56), not modified; light chain of BD57-028; IgG1; source: Expi 293, transfected, purified (protein A)) VH: QITLKESGPTLVKPTQTLTLTCTFSGFSLSASGEGMGWIRQPPGKALEWLALIYWDADERYSPSLRSRLTITKDTSKNQVVLKMTNMNPVDTATYYCAHHSITTVVDYWGQGMLVTVSS VL: QSALTQPASVSGSPGQSITISCTGTISDVGAFNYVSWYQQHPGRAPKLIIYDVSTRPSGISIRFSGSKSGNTASLTISGLQPEDEADYYCSSYSHTSLVFGTGTKVTVL | binds
4 | XGv-265 (antibody, V domains shown, heavy chain of XGv-265 (IGHV2-5*02, D56), not modified; light chain of XGv-265; IgG1; source: Expi 293, transfected, purified (protein A)) VH: QITLKESGPTLVKPTQTLTLTCNFSGFSLNTYGVGVGWIRQPPGKALEWLALIYWDGDERYGPFFKNKVTIAKDTSKNQVVLTMTNMDPVDTATYYCARHLIPTIFDYWGQGTLVTVSS VL: QSALTQPASVSGSPGQSITISCTGTSSDVGGSNYVSWYQHHPDRAPKLLIYEVTNRPSGVSNRFSGSKSANTASLTISGLQAEDEADYYCSSYTTTSTHILFGGGTKLTV | binds
5 | BD56-595 (antibody, V domains shown, heavy chain of BD56-595 (IGHV2-5*02, D56), not modified; light chain of BD56-595; IgG1; source: Expi 293, transfected, purified (protein A)) VH: QITLKESGPTLVKPTQTLTLTCTFSGFSITTAGVGVGWIRQPPGKALEWLALIYWDGDRRYSPSLKNRVDITTDISKNQVVLTMTNMAPVDTATYYCAQHTIDMILDYWGQGTLVTVSS VL: QSALTQPPSASGSPGQSVTISCTATSSDVGAYNYVSWYQQHPGKAPKLMIYEVNKRPSGVPDRFSGSKSGNTASLTVSGLQAEDEADYYCSSYTDNIVFGTGTRVTVL | binds

From article PMC11746035 (Frontiers in Immunology, 2024)
